The target of assay [1] is ErbB-4 receptor-Ig fusion (human, UniProt Q15303 26-651; Q15303 26-640). The assay can be described thus: 125I-HRG-β1 177-244 displacement, ErbB-4-Ig on plate.
Assay [2] concerns the target T1, ErbB-3 receptor-Ig fusion (human, UniProt P21860 20-643; P21860 20-636). The assay is described as follows: 125I-HRG-β1 177-244 displacement, ErbB-3-Ig on plate.
Assay [3] deals with T1, ErbB-3 receptor-Ig fusion. The assay is described as follows: phage ELISA, competition with soluble ErbB-3-Ig; against HRG8. In general terms: In an ELISA, binding on a coated surface is turned into a signal by an enzyme label.
Method: Microtiter plates (Nunc Maxisorp™ 96-well plates, Inter Med, Denmark) for phage ELISA were prepared as follows. The wells were precoated overnight with 0.5 μg of rabbit anti-human IgG (Fc gamma fragment-specific) antibodies (Jackson Immunoresearch, West Grove, Pa.) in 100 μL 50 mM NaCO₃ (pH 9.6). The wells were blocked for 30 minutes (min) with 200 μL PBS containing 0.1% bovine serum albumin (BSA) and rinsed with wash buffer (PBS containing 0.05% Tween 20™). The wells were then coated with 0.1 μg ErbB-2/3-Ig in binding buffer (PBS, 0.1% BSA, 0.05% Tween 20™) for 1 h, and washed again.
Following incubation for 2 h at room temperature, plates were washed extensively and treated with a 1:900 dilution of anti-M13 horseradish peroxidase conjugate (Pharmacia, Piscataway, N.J.) for 20 min. The amount of phage binding was determined by assaying horseradish peroxidase activity using o-phenylenediamine dihydrochloride) substrate solution (Sigma Chemical Company, St. Louis, Mo.).

Ends that are not written are not given here.

Chain of ErbB-4 receptor-Ig fusion (Q15303 other isoform, or with tags, fused parts or gaps): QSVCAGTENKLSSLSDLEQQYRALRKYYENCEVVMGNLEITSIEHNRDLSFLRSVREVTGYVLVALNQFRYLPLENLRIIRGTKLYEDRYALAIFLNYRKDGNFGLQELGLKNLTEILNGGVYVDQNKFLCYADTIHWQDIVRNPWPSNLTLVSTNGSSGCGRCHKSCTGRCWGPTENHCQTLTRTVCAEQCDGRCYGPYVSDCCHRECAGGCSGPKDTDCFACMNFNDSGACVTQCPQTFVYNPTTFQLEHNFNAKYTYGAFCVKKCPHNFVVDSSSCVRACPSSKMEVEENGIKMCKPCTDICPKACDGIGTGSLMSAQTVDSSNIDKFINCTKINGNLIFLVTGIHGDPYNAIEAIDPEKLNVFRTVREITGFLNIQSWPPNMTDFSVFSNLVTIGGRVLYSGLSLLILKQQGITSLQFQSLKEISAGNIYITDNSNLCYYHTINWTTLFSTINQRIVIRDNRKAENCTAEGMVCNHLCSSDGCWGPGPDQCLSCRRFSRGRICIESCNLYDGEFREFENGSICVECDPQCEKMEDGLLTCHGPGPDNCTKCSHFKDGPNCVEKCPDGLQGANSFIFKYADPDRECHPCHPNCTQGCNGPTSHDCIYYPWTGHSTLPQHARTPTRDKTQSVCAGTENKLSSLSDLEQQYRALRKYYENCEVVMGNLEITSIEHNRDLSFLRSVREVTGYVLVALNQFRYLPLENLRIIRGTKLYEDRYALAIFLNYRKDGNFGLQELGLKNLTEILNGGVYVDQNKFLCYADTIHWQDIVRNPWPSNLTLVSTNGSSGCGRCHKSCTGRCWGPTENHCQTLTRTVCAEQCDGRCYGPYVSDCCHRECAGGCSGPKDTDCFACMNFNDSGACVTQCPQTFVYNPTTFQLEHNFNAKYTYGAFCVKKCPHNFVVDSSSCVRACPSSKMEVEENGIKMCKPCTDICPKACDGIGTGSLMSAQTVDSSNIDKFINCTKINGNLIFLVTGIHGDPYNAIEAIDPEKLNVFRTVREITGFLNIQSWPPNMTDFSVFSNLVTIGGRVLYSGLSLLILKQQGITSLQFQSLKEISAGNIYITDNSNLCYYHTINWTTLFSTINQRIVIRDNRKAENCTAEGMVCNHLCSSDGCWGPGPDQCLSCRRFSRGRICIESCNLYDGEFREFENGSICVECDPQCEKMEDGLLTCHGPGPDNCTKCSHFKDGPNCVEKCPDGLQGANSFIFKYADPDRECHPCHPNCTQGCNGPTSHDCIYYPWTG
T1 sequence (P21860 other isoform, or with tags, fused parts or gaps): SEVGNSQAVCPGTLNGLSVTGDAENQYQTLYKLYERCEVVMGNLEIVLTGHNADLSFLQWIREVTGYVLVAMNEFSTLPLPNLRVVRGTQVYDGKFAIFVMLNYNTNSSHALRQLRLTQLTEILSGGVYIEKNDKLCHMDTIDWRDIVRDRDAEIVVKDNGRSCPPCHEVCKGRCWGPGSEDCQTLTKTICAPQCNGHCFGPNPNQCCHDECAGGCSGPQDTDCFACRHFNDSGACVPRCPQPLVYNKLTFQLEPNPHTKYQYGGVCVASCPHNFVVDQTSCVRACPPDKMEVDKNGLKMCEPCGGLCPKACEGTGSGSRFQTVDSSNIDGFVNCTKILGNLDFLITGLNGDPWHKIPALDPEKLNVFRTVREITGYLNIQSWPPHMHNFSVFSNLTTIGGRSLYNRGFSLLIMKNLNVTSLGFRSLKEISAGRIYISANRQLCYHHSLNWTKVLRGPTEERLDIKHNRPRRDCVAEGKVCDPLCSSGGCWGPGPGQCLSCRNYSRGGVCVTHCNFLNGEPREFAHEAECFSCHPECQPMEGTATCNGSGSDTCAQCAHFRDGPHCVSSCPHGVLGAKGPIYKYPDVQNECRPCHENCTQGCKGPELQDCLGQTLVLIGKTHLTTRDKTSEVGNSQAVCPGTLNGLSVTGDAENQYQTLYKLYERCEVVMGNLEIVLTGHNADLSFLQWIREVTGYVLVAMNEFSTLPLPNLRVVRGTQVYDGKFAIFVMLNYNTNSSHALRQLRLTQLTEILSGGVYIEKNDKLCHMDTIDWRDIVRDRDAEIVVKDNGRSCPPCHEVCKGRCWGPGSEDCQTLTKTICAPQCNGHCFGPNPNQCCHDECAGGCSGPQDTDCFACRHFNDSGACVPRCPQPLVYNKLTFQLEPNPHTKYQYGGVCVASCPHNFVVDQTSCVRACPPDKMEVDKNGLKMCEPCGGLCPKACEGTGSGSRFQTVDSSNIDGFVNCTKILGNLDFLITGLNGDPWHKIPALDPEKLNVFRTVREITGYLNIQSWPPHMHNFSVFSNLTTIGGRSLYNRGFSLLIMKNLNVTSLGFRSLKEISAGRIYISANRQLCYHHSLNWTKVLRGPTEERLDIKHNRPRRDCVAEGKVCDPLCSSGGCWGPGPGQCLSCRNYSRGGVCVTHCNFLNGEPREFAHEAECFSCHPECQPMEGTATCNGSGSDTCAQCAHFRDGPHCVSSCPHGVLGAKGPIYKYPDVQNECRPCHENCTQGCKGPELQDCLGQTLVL

Usually EC50 stands for the concentration that produces a half-maximal response. A lower EC50 goes with higher potency in that assay. Take “Trx-HRG-β1 146-244 E195A fusion (from UniProt Q02297 146-244) (ligand)”: the EC50 was found to be 13.2 nM in assay [1] and 42 nM in assay [2].

In the case of “Trx-HRG-β1 146-244 E215A fusion (from UniProt Q02297 146-244) (ligand)”, the EC50 in assay [1] is 104 nM; in assay [2], 156 nM.

Consider “Trx-HRG-β1 146-244 F189A fusion (from UniProt Q02297 146-244) (ligand)”, for which the EC50 worked out at 565 nM in assay [1] and 975 nM in assay [2].

Turning to “Trx-HRG-β1 146-244 F216A fusion (from UniProt Q02297 146-244) (ligand)”, the EC50 in assay [1] turned out to be 173 nM; in assay [2], 2550 nM.

Consider “Trx-HRG-β1 146-244 F229A fusion (from UniProt Q02297 146-244) (ligand)”, for which the EC50 turned out to be 89.9 nM in assay [1] and 177 nM in assay [2].

For “Trx-HRG-β1 146-244 G193A fusion (from UniProt Q02297 146-244) (ligand)”, the values for the EC50 in assay [1] and in assay [2] were 76.3 nM and 26.9 nM, respectively.

Regarding “Trx-HRG-β1 146-244 G194A fusion (from UniProt Q02297 146-244) (ligand)”, the EC50 was determined as 275 nM in assay [1] and 1210 nM in assay [2].

Take “Trx-HRG-β1 146-244 G218A fusion (from UniProt Q02297 146-244) (ligand)”: the results for the EC50 in assay [1] and in assay [2] were 608 nM and 668 nM, respectively.

For the molecule “Trx-HRG-β1 146-244 H178A fusion (from UniProt Q02297 146-244) (ligand)”, the EC50 in assay [1] came to 138 nM; in assay [2], 476 nM.

Regarding “Trx-HRG-β1 146-244 K200A fusion (from UniProt Q02297 146-244) (ligand)”, the EC50 amounted to 16.9 nM in assay [1] and 45.4 nM in assay [2].

Consider “Trx-HRG-β1 146-244 K211A fusion (from UniProt Q02297 146-244) (ligand)”, for which the results for the EC50 in assay [1] and in assay [2] were 124 nM and 248 nM, respectively.

As for “Trx-HRG-β1 146-244 L179A fusion (from UniProt Q02297 146-244) (ligand)”, the EC50 in assay [1] came out at 51.7 nM; in assay [2], 394 nM.

As to “Trx-HRG-β1 146-244 N192A fusion (from UniProt Q02297 146-244) (ligand)”, the EC50 in assay [1] came out at 696 nM; in assay [2], 1640 nM.

Consider “Trx-HRG-β1 146-244 P205A fusion (from UniProt Q02297 146-244) (ligand)”, for which the results for the EC50 in assay [1] and in assay [2] were 34.2 nM and 39.5 nM, respectively.

Turning to “Trx-HRG-β1 146-244 R207A fusion (from UniProt Q02297 146-244) (ligand)”, the figures for the EC50 in assay [1] and in assay [2] were 24.3 nM and 245 nM, respectively.

As to “Trx-HRG-β1 146-244 S177A fusion (from UniProt Q02297 146-244) (ligand)”, the results for the EC50 in assay [1] and in assay [2] were 54.6 nM and 129 nM, respectively.

Take “Trx-HRG-β1 146-244 T217A fusion (from UniProt Q02297 146-244) (ligand)”: the values for the EC50 in assay [1] and in assay [2] were 32.7 nM and 145 nM, respectively.

In turn, “Trx-HRG-β1 146-244 V199A fusion (from UniProt Q02297 146-244) (ligand)” yielded an EC50 in assay [1] of 246 nM.

With “Trx-HRG-β1 146-244 Y224A fusion (from UniProt Q02297 146-244) (ligand)”, the figures for the EC50 in assay [1] and in assay [2] were 24.5 nM and 339 nM, respectively.

B1: HRG-β1 EGF variant I1 displayed on phage (ligand, human, not shown: large carriers)
chain: SHLVKCAEKEKTFCVNGGECFMVKDLSNPSRYLCKCPNEFTGDRCQWYVIASGGGSGGGSGGGS
notes: monovalent phage display, pHRG8-g3 background
As for B1, the “EC50 (wt)/EC50 (mut)” value in assay [3] worked out at 13 ratio.

B2: HRG-β1 EGF variant E8 displayed on phage (ligand, not shown: large carriers; small tags and cut ends)
chain: SHLVKCAEKEKTFCVNGGECFMVKDTKYRGCKCPNEFTGDRCQNYVMAS-{(GGGS)3-M13 pIII C‑terminal fragment from residue 323}
modifications: ends and bridges not checked
notes: monovalent phage display; library E carries the 202-204 deletion
With B2, the “EC50 (wt)/EC50 (mut)” value in assay [3] came to 17 ratio.

Values taken from patent US20030129688A1 (published 2003).
